The data set has as its system PAPPA2 (pappalysin-2), full-length urinary protein from vAKI patients.

As to Cathepsin D, the “digestion of urinary PAPPA2, loss of PAPPA2 immunoreactivity on immunoblot” value was “the addition of cathepsin D to vAKI samples digested PAPPA2”.

Source of the values: patent US20190064166.
